The values below come from a protein production outcome set (Wang et al. 2014).
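Also: failed if final PepcDB status was selected cloned or expressed and not failed if soluble or beyond.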

A short description of this series: label from the status in PepcDB records.
As for “PGAAPGLFALESAIDEMALASGMDPLAFRKLNLSDKDQSVGLPWSSNHLPEAIDKAAERFGWQARKAAVGSMREGDEIIGYGMGACNWEAHQVPTDARVVLRSDGTALAQCGLQDIGTGTYTIVAQTVSELTGIPIERVEVELGSSSFPPGPVSGGSWVTASVMPAIAGATREALQKLRQYAISKDAVFAGQDPESIKVENGQLVMGEQRASFVDVLKGQRLSRAEGNFQSGMPEAGKYSFRSFGVHFVEVRWDPGISSLRVSRVVSAIDVGKVINPLAARNQVEGAIVMGIGMALFEAGEYDPRSGMPVNNNYAEYVVPVHADQPDIDVMLLDYPDYNLGEFGARGIGEIGVTGLAAAVANAVYHATGKRVRSLPITKEKLMAGL”, the protein production entry is “failed”.
For the sequence “PPSTLIGPGDDAALVRADDGRVAVSADMLVQDRHFRLDWSSPRDVGRKAVAQNAADVAAMGARPTAFLVSLGLPPDTSIDVADGISAAIGESAEELGAGVVGGDLVQAGQVVISVTVLGDLGGRS”, the protein production result is “failed”.
On to “MFVEVFIVGLLAGMSPGPDFFIVMKNSLGFGARVGILTSLGIASALIVHITYTVLGFAFLIETYPALFFTIQLLGAAYLIWLGFHAIRSSPPKKEEAEIEETQPIQSTKDSKSSIQGFKEGFITNLLNPKAALFFLSIFSQFITPQTADWVRWMYGLEVVVAVGLWFSFLAIFISYKHFRRFYQTHSYWFDRFLGAALLFFAIRIIIGAF”, for which the protein production entry was “failed”.
Turning to “MAEEQEIVDSLSAEVNPDQKVDMEVETATPKAETGDEKREREETEEEENGGESKKQKVGEEEKSGPVKLGPKEFVTSVAMFDYFVKFLHFWPTDLDVNKYEHMVLLDLIKKGHSEPEKKIGGGIKTFQVRTHPMWKSRCFFLVREDDTADDFSFRKCVDQILPLPENMKTPGANGNGHGGGRGGGGGRRGGRGGGRGGRFRR”, the protein production entry is reported as “failed”.
“MTNKITERITGHTELIGLIATPIRHSLSPTMHNEAFAKLGLDYVYLAFEVGDKELKDVVQGFRAMNLRGWNVSMPNKTNIHKYLDKLSPAAELVGAVNTVVNDDGVLTGHITDGTGYMRALKEAGHDIIGKKMTICGAGGAATAICIQAALDGVKEISIFNRKDDFYANAEKTVEKINSKTDCKAQLFDIEDHEQLRKEIAESVIFTNATGVGMKPFEGETLLPSADMLRPELIVSDVVYKPTKTRLLEIAEEQGCQTLNGLGMMLWQGAKAFEIWTHKEMPVDYIKEILF”: the protein production result is “not failed”.
Regarding “MAALAIIQSLNTSSYPIDIQRLKPKKMPEEPGPARNKFRSDFIVEIALIVAVAVYLVMAQGQVVGENLSFTVTGAALMALATYWTLHTIRDGLEVIALRLRPGK”, the protein production entry is “failed”.
Consider “MRLKDLGERALLARLAPLGYPPEAPLPPGDDAGGVWAEGRAWLLKTDGFLYREVALKGMGPFEVGFRGVAATASDLLAKMGRPLGFTLGLFLPEDLEEGFVLELVRGAAEAAKRLGAFLLGGDTNRGVEVALTVSGYALAEAPLPRKALPGDLLYLAGDRWGRTGAAIRAHYEGRSLEGFPKIREAAFYPLPRLELLALSGLLRGSLDSSDGLAETLWQLADLGVGVEVEALPLYPDVLAFAGSEEAALELVLYGGEEFEAVLVVPQEGAAAVEARAKAKGLPLFRAGRVVAGEGVYLRGAPLPRKGYAHF”, for which the protein production entry is reported as “not failed”.
With “MAYDIERYLDIRGAGDPTYGPTGELAFTLGTTGTAQVWALGAPGAWPTQLTFHDERVQWASFSPTREELAYGMDTGGDEFTQLHRVSGDGSEDVQLTAFPDAKHDWGGWSHDGDRIAYTANRRDASRFDVYVQGRDEAGANADCVRVGDTFDLPSVVGWSPSDDRLLVVDTHSNFDQDVAVLDVDTGEITRATAGLDADTRFSWVAWAPDGGGVYVTTDHDADTRYLGLLDPETGAISRVADGGDWPIEAVVTAHDAGRLAYVRNRDGYSELTIADAAGTTLTEQPTPELPDGVIRGLSWGPDGDTLAVVVSAATENPNVFVVDVATGAATQWTNAATAGIPKSTFREPELVRYETFDGREIPALFTRPDGDGPHPVIVDFHGGPEGQRRPSFLSLRQYFVDNGYAVFEPNVRGSSGYGATYMNLDNVRNRMDAVADGKAGVEWLTARTDIDADRVVAYGGSYGGFMVLASLTEYPELWAAGVDIVGIANFVTFLENTGDWRREHRESEYGSLDADREFLESISPTNNADRIRAPLLVLHGANDPRVPVGEAERIVEQASAHVPVEKHVFDDEGHGFSKRANKQAAYRAVVDFLDDHALEHHHHHH” the entry was “failed”; with “MHSGLDNSAELRVSDFDPITLAGGTRTEVLPGAIQPHAALLALAPADLTIVHAAGATASLLGAAAELLPGTAASTAFSSDQIARLQALATAERWIERPQHAFTLNAPDATPIDVIVHHASGLLVVELDPRREPAPENSLALVQSMIRRARPAPNLQGFCDAMAAELRSVTGFDRVMVYRFARDGSADVIAEARGPETSPFLGLRDPQPDISNQPGSISRIRVQPDVHAPAAPLWPAHSPRNGLALDLSFSATRSASPEHRLYLAQLGVAASLSLSLVVEGELWGLIVCHHATPRFLPYRMREACALFAEMASLQLETRLAADQLAARLRSTRIHEELVTRMSQESDLAEGLIRFYPNLLDFIPAAGVGLWIDGQFTGIGATPGPAQVAAMMGWLHGVPHDGVYHTDCLALAYPPAKAFAGCASGLLALSLSNTPHNYVLWFRPEVVRVVTWAGMPNKPVGVDAGAPRTPKGCASSWQESVRLHGEPWLDTDVDAAHRLRESLLDVVLRRIDGIARERRSAQLLQEQLMRQVELGLSRSKDVAKTLQEEKRRRVLVEADLSKVLRRTVEDQEAERLRIARELHDTLGQSLTLLQLGFDKLGQAAGDNPELQQRIAEMKSLTADVGRQANRLAWEIRPTALDDLGIQTAIQNLLDSWSEKSSIEFDLHMTLGSRRLPSPVETTLYRVLQEALTNVVRHASARHVSVILQLGDDQVTMIVEDDGCGFVTAGRKPPSGRLGLLGIRERLSLVGGSLEIESAPGKGTALYARIPL”, “failed”.
The value for “MFELWYIHISLAIVSAIFSILIFLEFKSLRKEFHGKLSGVLLLISVLLLFESVVNAVAFSMWSYGHDPVYVYPSMAIAIVSTSVIILFYYYVAKV” was “failed”.
For “MMTPEQIATVMTGKVEAAGKGRHEAVLASPMIQNHAPFLHLADDGALICAWFGGTLEGKSDISIFTSVLAAGSNKWGEPQRLSFDPDHSEQNPVLFAAPGNTLLLFHTSQPSGNQDECRIRMAEVSRDASDPTRLTAGEGLYLDLPRGCFVRAPLTVRADGAWLLPIFRCIQRPGQKWNGSHDRAAVGISEDCGKSWRLEDIDQSTGCVHMSPLVIGDEKLAAVFRRRQADFVYRTESADGGRTWSAPQATDVPNNNSSIAAIRLNDGRIAMICNPTNAAMSSDRRASLYDELGEDDDRPDANPDGGCVPIWGVPRAPVTVCISEDGAKSFPQRITIEDGPGTCLSNNSIDGHNKEMSYPWLLEGADGSLHIAYTYYRRAIKYVRLAPGWARAADGR”, the protein production entry is given as “failed”.
Take “MHSSSRASFTTRGDIRRQVEGFSASGERNKDTVVDLSTFFAERGYSNNQAPTKYWEEKLVTIGNVVVPKWVPVKERNSSNKQKEGEDEVFIGFEAIYYPEQPPERQPITLYQEENKVEEEEQSRE”: the protein production result is reported as “not failed”.
The value for “MDLSGVKKKSLLGVKENNKKSSTRAPSPTKRKDRSDEKSKDRSKDKGATKESSEKDRGRDKTRKRRSASSGSSSTRSRSSSTSSSGSSTSTGSSSGSSSSSASSRSGSSSTSRSSSSSSSSGSPSPSRRRHDNRRRSRSKSKPPKRDEKERKRRTLSPKPTKVHIGRLTRNVTKDHIMEIFSTYGKIKMIDMPVERMHPHLSKGYAYVEFENPDEAEXALKHMDGGQLMARDHCYCCVGTLASATTSRFSPPRRMLPPPPCGVGHPHG” was “not failed”.
The value for “SHRSAAAFVDAERELFVRDQPIGPDDRVLAGLSVAFDASCEEMWLAWGHGACLVPAPRSLVRTGLDLGPWLISRDISIVSTVPTLAGMWPAEALDNVRLLILGGEACSAELVARVASSRREVWNTYGPTEATVVTCAARLEAGQPVAIGLPLAG” was “failed”; that for “MSNEMYYVQASDPAILEKGECGGAVTALFKYLLDKGIVDGVLALKKGVDVYDAIPTFVTSSEDLLSTAGSLHCAPTMWGGIIKEYLQDAKIAVPVKPCDMRAIVELAKRAQINLDNVYMIGLNCGGTVPPKTAMEMIKLFYEVDPKDVVKEEIDKGKFIIVMNDGSHKEVKMHDLEDNGYGRRVNCQRCDEKIPRKADIAAGNWGVIGEDAGKYTFMEVCTEKGKQLLEDAEKDGYIKKKSPNPKGIEIRAKVESSMLKMGEDYKNKWLEEEYPTIEEWNRQWNKCIKCYGCRDVCPVCFCRECALNADYLDSGSIPPNPIMFQGVRMSHMAFSCVNCGQCEDVCPMEIPVARIFHKVQEKTRKELGYRPGVDDEAPPALGGSCPTQ” was “failed”.
